Reference: the domain aggregation screens of Martell et al. (2025)

Experiment: soluble fraction after stress (log2 fold change); higher = more stays soluble; pooled small domains, quantitative proteomics
Settings: stress: 75 degC
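Further: 20 min heating vs room temperature control held 20 min.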

Sequence | soluble fraction (log2)
HMDDTVILPIQINGKRRAEISVPKAMPASEVEKLALANEDVLRFLAGQPIKKLIVVPGRIINVV | 0.0584
HMDDVGERIRKIREEKNLSLDEISKMTGFDVEFLAKIENKERQPQLGTVIKLSKALDSAFGRL | 0.162
HMDDVGYLRKRLQQALAQLSDDLRNTYTLFQIGKQSIKQIAAETGASESLVKVRIHRAKQKLQELLADLQ | -1.47
HMDEDLQEALRKLNPIQANERKLLLKMLEQHRWNVSSVAKAFDVSRNTLYRRLHKLHIPLSNPSE | -1.33
HMDEEAIELTQEVMKLPPKQREVILLYYYHGLTGKEIAKALGISGAAVSKRLKQAKNQLHFALK | -0.282
HMDEEVLVVQEGGERLDVFVAANAEGITRSFVQNLIKKGDVTVDGAPRKANYRLRSGQVVRFSLPEP | -0.204
HMDEFEEGVITYFNSEKGFGFIRESKTKQSVFVHSKQLSSPVQLNDKVKFIVNKGLKGLEATEVSVI | -0.818
HMDEFQLTPREQEILGLLVKGYTYKRIASELNLSYATVNRHVSNVYVKLRVHSVNEAVALAVRKGL | -1.39
HMDEKLAHKLVSDFRQAAASLERFPFRNPVLRSEVFTVEKYRKLVFDKYHILLYQVKDQVVYVEYVIDGRQ | -0.94
HMDEKVTIPSVSGLLLSEAKTKLVDAGLTVETVYDDESKEAKDTVLSQSPLQYGKVDKGTVVTLTVSSGKG | 0.332
HMDELPKDILRSFGLPDKPWAMELLRNLRRDGFALDGETARAYAEMAAMKPPRTDARQWMTAADVAYRRG | -0.343
HMDEMPVEFVKISIKAGHPWENRKIKDLASLPDLLLVLILRGEERIIPNGNTVVLAGDKIVLSALSPE | -2.74
HMDENILKTRIEDLDLSVRTIKALTGASIRTVSGLARKKESDLLEISGLGDKGIQEIKRALGSLGITL | -0.498
HMDENTEQESQTVVVPDVTGKSLSEAASILREAGLDYLAEQTGTVVTKQMPLPDAEVLINTTVLLYTDSE | 0.143
HMDEPSITYGKVKVQTSLNVRQGPGTQYARIGSLGPNVRIQILGQEGQWYKIKYGNLQGYVHSDYVELEK | -0.026
HMDEQKNREIALIENIQREDLNPYEKALGIRNLMDKYGLTQEEVSKRIGKSRSAVSNTVRILNLAPDVL | 0.125
HMDEQLAWLYRKINAFSEIDKALILLYLEDKKYDEIAETLGISSVNARVKMNRIKKRLKEMINDR | -3.14
HMDEQVETLKNLISELPKEQLEVLVMRHYEDLSFKEISEKTGVSINTALGRMRYALINIRKLMKENN | -0.145
HMDESLIEEAKAMILQMKIEGSVRVRSNGLLEFRNPLFGSVYGRSVEELQEKLNKKVREQKSRI | -0.443
HMDEVPMPPEYQYLRVGSRVHHATFGWGKVTRLSQPWPQTRAEVFFENIGPKKLVLAHAHLTMD | -3.26
HMDEYTAVDSRLDLELAMKRLKPEEAEVLRLVFDYGLPQRAIAERLGVSQMSVSRMQRRAIGKLKRWLSDN | -1.43
HMDFKKKIIESWADIAETLRGLTVDSNISDWTTKQKNAYETLADKAELAGLSIADLNSILVELGYM | -0.119
HMDFNDPTMEKSLVELPAMSNSTLRDLSENNIKKLEELAEMSVGELMDIASKISESDASALIMEARKPWF | -0.312
HMDFRVGVWVELVQQRRSVRTQLTWVSPQHTLFLFTAKDGSTQSMTLRMRDKLLAEGNLRIVAPPSR | -2.37
HMDFSENEPVTVRVLSILKNNTIRIAVKGAVLQAQTALSQDIREGAFLLMRVHITDNTVVLTPY | 0.112
HMDFSNVNFSQVSDSELDLLMRRASAQGYTQFDLLKIARAQGLTQAEIEKLDKRFKSAETVAYVAENA | 0.0531

Sequence | soluble fraction (log2)
HMDFTHFTLKQDGKFAGSSNLLHQAVIAAARLAAETGKPVTVMAHVRGGGTRKAVFNPDGTNDKIWN | -1.05
HMDGAPVTVIKNGEVDVATTMRVGLSASELMFKLRAAGVDEVQIVHRAVLEQNGQLTIIKYGEE | -2.03
HMDGASVQRITELTATLNRYRHEYYNLAKPSVSDAVYDRLFDELAALEQKTGIVLSNSPTQTV | -0.326
HMDGFVFVMPIKETRMFSVNDERPLVGIVKYSNGEFEKEQLIGFRPNSEYEFIIEGQRLYRVPVNSITIK | -1.08
HMDGIRLYPGLMIEHKNFGRGQVVSVNRERGTFTAFFGKNGTRTLTIQILKTDTVRPLASQKAGK | -0.594
HMDGKPSLIISNGQINYKEMVKLRYSLEDLLFQLRQNSIKSIEEVEYAFLESNGKLSIFPYNFL | -2.53
HMDGLGLGAVILAQRKRQGWTQEDLAARIGVSKGAVSKWETGQSYPDLPLVPRLAALFHITVDELLDYR | -2.35
HMDGLIRLNKLLATLGVESRRHAEEMIIAGRITVDGVTATEKGQKVRRGAVIKVDGVEVGPPP | -0.581
HMDGQPQLLIKNGQLLVSTALKNGMSANDLMFRLRTEGITDIRYVKRAVLEQNGQLTITQVGDD | -0.622
HMDGVTEYTVKSGDSFSAIINKHYNVNYDEKLMQAVAAYNNIEDMNKLQLGQIIKLPPKEQLNL | -0.0462
HMDGYVPAERIASEVGVSARTITREMHGLEMTLMPYGIALLRRTGAGFMLAGTAKALADLRKHMTEDADTQ | 0.134
HMDHAHWEEHEVKLLLTLAIQEKEKFNWNQFGLTREGWRNIYPHFPQYSRKQINNKFDFLKQKYRAWKDS | -1.8
HMDHAVINSEEVTIKDLSEKIGVSAAEIIKALFTEGIIKTINDKIEYEYAQYVAGMFGVELTLKL | 0.357
HMDIANEQEQIFITAMRNDDFNPILELKMKGYQPSKNVLKSLQPDVSSTTFIAAAKIFQMEGVL | -1
HMDIASNQIQGIKDSVGGDENYSKMVAWALESLPAEEVKAFNDLTETANAPAIKMAVQGLYSQYNNAM | 0.195
HMDIDGVSENGRLILAALDKEALDFDTLAAETGIQESRLRTELTLLEIRKLIMKLPGQRYRLI | -2.39
HMDIDNDIIENILVMGVTKAIAINLSNEFERHRIIANIEYAKEKSKNSEIKNISAFTVEAIRQDYANS | -1.34
HMDIEITIPPEAKELDVSKILISGNIITDEQEFLDYLKQNNVAAFKDGNYKLNKNMTTEEIVNQIK | 0.691
HMDIESREAWVDASGMGVRLDRWLTQLAPEFSRNHLQSLIERGAVRVDGQPALVASRKLRIGQQVAVSLIP | -1.31
HMDIEVEVPNLVGMSLDEAKSIIQSMGLVVGLTIEDPSAKVSDNSVTKQKPTYQTGVKLRSGDMIDIWYAG | -0.659
HMDIFSSFVAIKNANVRELPTAKSAQVATLSKGSEVTALGKVKGKNWYLVARDGKELGYVFGSLIAEAET | -1.56
HMDIINLADNIARLRRRRQITQEELADYLGVTKAAVSKWENRQTMPDILLLPRLAGLFEVTIDELVGY | -2.19
HMDIKDRSGVTIDESNEAQQESIIRESWAEQKISGNVDNYIAYLKANGMLLETAKIELAALQEKDASLRE | 0.774
HMDILEVLIKKDLAMELLEQLTERQRTVVYLRYFYQLNQKEIADYLGISQQRVSEILSRAKAVLTAYTKK | -3
HMDILPEGNYKVNYDVIDEVGNIVANKNDIVVTEKSIKPLNTILGIDLYEVIHSQTGKYFTINGDNLTN | -0.0277
HMDINLGIGPLVKKYRTIKGYSIRELARNINVTASMLSQIERDIVNPSINTLKAISVELGVPMYKFFM | -2.38

Sequence | soluble fraction (log2)
HMDINLSENLVRLRHAKKLTQEQLADFLGVTKASVSKWETRQSLPDILLLPRLAAFYGVTVDELIGYEP | -1.81
HMDISKTLGKNPLLIIDNIEYRGKTLDEITAMTGVKRFENIDIYGSEEAMKTYGEKAKDGVIIAYTT | 0.0575
HMDITGIGIKKRIKAIIDSEDKKNPLSDTQIVEILKNEGLEISRRTVAKYRSDLQIPSSSKRKK | 0.143
HMDIVEIYVGEEDGERIDSYLAQELNNVSRSYVQGLIKNQLITVNGNHVKPKHIVKEGEHIIVNIPPPKV | -0.0948
HMDIVENSMPNVVGLELNRAKELMTQLGFTNVRYEPTESSRPENEVVYQSVDKDETLDVSSEIIIQYSSGV | 0.0628
HMDKEKLQEKLLQIFEAEPQKKFQVQDLVKVLDMEGAGQFKFVVQALADLEHNKQIKLSEDDTFSLIVKE | -0.173
HMDKENVLQLQKDLLRLSVNALEKRYYQFSDILLLKYILPLVPKEISIDDQSRLRSLLSGIN | -0.538
HMDKEPTHLHTFRLIKEGKSSEEIAEIRNITLGTVNTHLAKLIAVGELTIEQVISKHRLDYVMEAIKNSK | 0.176
HMDKKIVGVNAGKVWQALNEVTEISIVELAEKLNLSVESTALAAGWLAREDQISIERKNGTIELQRKN | -0.91
HMDKNNLLIIYRTNSEGTPYAFSVTPSAKSLDALHKDAKEMLPFLEKSMNNFFSIQIWERAEYLKY | -0.785
HMDKPGMRLNQFIAHSGISSRREADNLIKAGLVQVNGKIIVEMGFRVMPTDIVKFNNETIAS | -2.08
HMDKPIVFLEDTKAHKSSDLQSPVYMTVPKGTIAFVIAEKGDWSQVYAGRVLDRNLASQWVRRGFS | 0.267
HMDKSLDFASIKSVEIATGRKFGWHALKKWSKSNSSEIKTIPDPNFGEVKTYHKDAWLAVYNINLSPILD | -0.376
HMDKSPMIGTAEYEGVLYWRQTKDNGATWEWITDKNGDKMPVSGPAPAVGIDKDGYWTVNGESTGVLAKD | 0.225
HMDKVSYALGLGIGRQLTDMGAKDLNIDDFAQAIKDVLAGGEVKLSDAEAQTIVRNFFDEQEKKQRA | -0.029
HMDLANLQNGQTLPLQRDVEVISIPFGKTISLSEDSVVSIMQAKGSSVSVAYEGRLYLIEGSNLDALGLEP | -1.1
HMDLANRSLDRGITILESLARNGASSLADLHRDSGIAKSTIRRLLGTLIQHRLVRRSVADGLYRVTIPLPA | -1.42
HMDLDIQNYNLDEILELFKVSYDFDETELKKAHKMYLMTHPDKSNLNPNIFLFFVQAYDILRKLYEFR | -0.691
HMDLDIRDDIYRANIPNDYKLQQMQNNIDYDKVLTGYYNNRPEANVIANRTLQLANDVYNRD | 0.00307
HMDLDLNIDNYNFDDLLNLFGLKMKFSEDDLKKAKRSVLMTHPDKSGLDKQYFMFFTKAYKMLSQIYYFR | 0.572
HMDLDPNKPAIPIAYPRVLLNIMAEKGFSRTEVLAGSGLADSVFDKPDHRITPAQFLFILMNSFYLS | -0.67
HMDLFLVYQFIRRLATPFTEWKAHELGIIDDKGVQLKKRRDFTTREEKDAYGIFDIMITKLKRLIEKV | 0.0817
HMDLFSAVVHHIVGQQISTKAQATIWKRMRDEFGVVDAAAVLGAGVEKLQSFGMTFRKAEYITDFARKIE | -2.61
HMDLGLTDDQRLVYGLLSPTVPRSSGELLGMVDFGRSKLSRILKELIELGQVFTVGVGRGLKYKRG | -0.482
HMDLGTHMRLIVPTGMRVDHIVYESNGKNISVDHDRSISVRWNGEVVSIDVSPLPSRPDFDVLIYMSPK | -0.134
